Molecular target: T1, HdrR (Streptococcus mutans UA140, UniProt Q8DSE1 1-133)
T1 sequence: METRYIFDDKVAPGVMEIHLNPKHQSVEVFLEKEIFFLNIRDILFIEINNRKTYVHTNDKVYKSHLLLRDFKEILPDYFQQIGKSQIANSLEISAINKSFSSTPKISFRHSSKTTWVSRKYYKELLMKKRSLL
Test: EMSA; 1 ng probe, 10-30 ug HdrR as printed, 20 ul; unlabeled wild-type competitor 50 and 200 ng; EMSA: 20 ul, 25 C, 20 min; binding buffer not printed (as ref 62); oligos annealed in 50 mM Tris-HCl pH 8.0, 10 mM MgCl2, 50 mM NaCl, 1 mM EDTA
Conditions: protein: recombinant; tags: His6 (HdrR-His6, pET29b); chain copies: 2; label: 5' digoxigenin-11-ddUTP on forward strand (probe); blunt

B1: hdrRMP (wild-type hdrRM operon direct repeat probe) (dsDNA)
DNA 1: TAATGGTTACCTCTTAGACATTAAAAATGACCACTTAATAGAAAAG
DNA 2: CTTTTCTATTAAGTGGTCATTTTTAATGTCTAAGAGGTAACCATTA
B1: binds.

Reference: article PMC6193735, “Defining LytTR Regulatory Systems”
